B1: HDV Ribozyme (parent)
chain: GGCCGGCAUGGUCCCAGCCUCCUCGCUGGCGCCGGCUGGGCAACAUUCCGAGGGGACCGUCCCCUCGGUAAUGGCGAAUGGGACCCA

Variants of: B1
Assay: self-cleavage, relative activity (ratio to wild type); higher = more cleavage; co-transcriptional

In order of rising self-cleavage:
1. AGCCGGCAUGGUCCCAGCCUCCUCGCGGGCGCCGGCUGGGCAACAUUCCGAGGGGACCGUCCCCUCGGUAAUGGCGAAUGGGACCCA [G1A U27G]  0
2. AGCCGGCAUGGUCCCAGCCUCCUCGCUGGCGCCGGCUGGGCAACAUUCCGAGGGGACCGUCCCCGCGGUAAUGGCGAAUGGGACCCA [G1A U65G]  0
3. AGCCGGCAUGGUCCCAGCCCCCUCGCUGGCGCCGGCUGGGCAACAUUCCGAGGGGACCGUCCCCUCGGUAAUGGCGAAUGGGACCCA [G1A U20C]  0
4. AGCCGGCAUGGUCCCAGCCUCCUCGCUGGCGCCGGCUGGGCAACAUUCCGUGGGGACCGUCCCCUCGGUAAUGGCGAAUGGGACCCA [G1A A51U]  0
5. AGCCGGCAUGGUCCCAGCCUCCUCGCUGGCGCCGGCUGGGCAACAUUCCGAGGGGACCGUCCCCUCGGUAAUGGCGAAUGUGACCCA [G1A G81U]  0.0426
6. AGCCGGCAUGGUCCCAGCCUCCUCGCUGGCGCCGGCUGGGCAACAUUCCGAGAGGACCGUCCCCUCGGUAAUGGCGAAUGGGACCCA [G1A G53A]  0.0449
7. AGCCGGCAUGGUCCCAGCCUCCUCGCUGGCGCCGGCUGGGCAACAUUCCGAGGUGACCGUCCCCUCGGUAAUGGCGAAUGGGACCCA [G1A G54U]  0.0475
8. AGCCGGCAUGGUCCCAGCCUGCUCGCUGGCGCCGGCUGGGCAACAUUCCGAGGGGACCGUCCCCUCGGUAAUGGCGAAUGGGACCCA [G1A C21G]  0.0489
9. AGCCGGCAUGGUCCCAGCCUCCUCGCUGGCGCAGGCUGGGCAACAUUCCGAGGGGACCGUCCCCUCGGUAAUGGCGAAUGGGACCCA [G1A C33A]  0.0554
10. AGCCGGCAUGGUCCCAGCCACCUCGCUGGCGCCGGCUGGGCAACAUUCCGAGGGGACCGUCCCCUCGGUAAUGGCGAAUGGGACCCA [G1A U20A]  0.0594
11. AGCCGGCAUGGUCCCAGCCUCCUCGCUGACGCCGGCUGGGCAACAUUCCGAGGGGACCGUCCCCUCGGUAAUGGCGAAUGGGACCCA [G1A G29A]  0.0615
12. AGACGGCAUGGUCCCAGCCUCCUCGCUGGCGCCGGCUGGGCAACAUUCCGAGGGGACCGUCCCCUCGGUAAUGGCGAAUGGGACCCA [G1A C3A]  0.0627
13. AGCCGGCAUGGUCCCAGCCUCCUGGCUGGCGCCGGCUGGGCAACAUUCCGAGGGGACCGUCCCCUCGGUAAUGGCGAAUGGGACCCA [G1A C24G]  0.0702
14. AGCCGGCAUGGUCCCAGCCUCCUCGCUGGCGCCGGCUGGGCAAUAUUCCGAGGGGACCGUCCCCUCGGUAAUGGCGAAUGGGACCCA [G1A C44U]  0.0898
15. AGCCGGCAUGGUCCCAGCCUCCUCGCUGGCGCCGGCUGGGCAACAUUCAGAGGGGACCGUCCCCUCGGUAAUGGCGAAUGGGACCCA [G1A C49A]  0.0923
16. AGCCGGCAUGGUCCCAGCCUCCUCGCUGGCGCCGGCUGGGCAACAUUCCGAGGGGACCGUCCCCUCGGUAAUGGCGAAUGGGACCCC [G1A A87C]  0.121
17. AGCCGGCAAGGUCCCAGCCUCCUCGCUGGCGCCGGCUGGGCAACAUUCCGAGGGGACCGUCCCCUCGGUAAUGGCGAAUGGGACCCA [G1A U9A]  0.138
18. AGCCGGCAUGGUCCCAGCCUCCUCGCUGGCGCCGGCUGGGCAAGAUUCCGAGGGGACCGUCCCCUCGGUAAUGGCGAAUGGGACCCA [G1A C44G]  0.138
19. AGCCGGCAUGGUCCCAGCCUCCUCGCUGGCGCCGGCUGAGCAACAUUCCGAGGGGACCGUCCCCUCGGUAAUGGCGAAUGGGACCCA [G1A G39A]  0.141
20. AGCCGGCAUGGUCCCAGCCUCCUCGCUGGCGCCGGCUGGGCAACAUUCCGAGGGGACCGUCCUCUCGGUAAUGGCGAAUGGGACCCA [G1A C63U]  0.147
21. AGCCGGCAUGGUCCCAGCCUCCUCGCUGGCGCGGGCUGGGCAACAUUCCGAGGGGACCGUCCCCUCGGUAAUGGCGAAUGGGACCCA [G1A C33G]  0.148
22. AGCCGGCAUGGUCCCAGCCUCCUCGCUGGCGCCGGCUGGGCAACAUUCCGAGGGGACCGUCCCCUCGGUAAUGGCGAAUGGGACCCU [G1A A87U]  0.157
23. AGCCGGCAUGGUCCCAGCCUCCUCGCUGGCGCCGGCUGGGCAACAUUCCGAUGGGACCGUCCCCUCGGUAAUGGCGAAUGGGACCCA [G1A G52U]  0.162
24. AGCCGGCAUGGUCCCAGCCUCCUCGCUGGCGCCGGCUGGGCAACAUUCGGAGGGGACCGUCCCCUCGGUAAUGGCGAAUGGGACCCA [G1A C49G]  0.166
25. AGCCGGCAUGGUCCCAGCCUCCUCGCUGGCGCCGGCUGGGCAACAUUCCGAGGAGACCGUCCCCUCGGUAAUGGCGAAUGGGACCCA [G1A G54A]  0.172
26. AGGCGGCAUGGUCCCAGCCUCCUCGCUGGCGCCGGCUGGGCAACAUUCCGAGGGGACCGUCCCCUCGGUAAUGGCGAAUGGGACCCA [G1A C3G]  0.227
27. AGCCGGCAUGGUCCCAGCCUCCUCGCUGGCGCCGGCUGGGCAACAUUCCGACGGGACCGUCCCCUCGGUAAUGGCGAAUGGGACCCA [G1A G52C]  0.237
28. AGCCGGCAUGGUCCCAGCCUCCUCGCUGGCGCCGGCUGGGCAACAUUCCGAGGGGACCGUCCCCUCGGUAAUGGCGAAUGCGACCCA [G1A G81C]  0.269
29. AGCCGGCAUGGUCCCAGCCUCCUCGCUGGCGCCGGCUGGGCAACAUUCCGAGGGGACCGGCCCCUCGGUAAUGGCGAAUGGGACCCA [G1A U60G]  0.302
30. AGCCGGCAGGGUCCCAGCCUCCUCGCUGGCGCCGGCUGGGCAACAUUCCGAGGGGACCGUCCCCUCGGUAAUGGCGAAUGGGACCCA [G1A U9G]  0.302
31. AGCCGGCAUGGUCCCAGCCUCCUCGCUGGCGCCGGCUGGGCAACAUUCCGAGGCGACCGUCCCCUCGGUAAUGGCGAAUGGGACCCA [G1A G54C]  0.364
32. AGCCGGCACGGUCCCAGCCUCCUCGCUGGCGCCGGCUGGGCAACAUUCCGAGGGGACCGUCCCCUCGGUAAUGGCGAAUGGGACCCA [G1A U9C]  0.369

Source: the RNAGym collection of RNA variant scans (doi:10.7554/elife.80360)
